Data: patent publication US20220323495A1 (NATIONAL RESEARCH COUNCIL OF CANADA, published 2022)
No end group written: not given here.

Columns and labels:
[1] = target: T1, recombinant human EGFRvIII protein, denatured (human, UniProt P00533 298-623); experiment: ELISA on coated denatured recombinant antigen; Exp 2, purified mAb 1 µg/ml
T1 construct: Same protein as m9 after denaturation (95 °C for 5 min in PBS with 40 mM DTT); also called EGFRvIII Denatured
Procedure: (§1) Pre- and post-immune sera titers of animals were assessed by ELISA on recombinant EGFRvIII protein. Unless otherwise stated, all incubations were performed at room temperature. Briefly, half-area 96-well plates (Costar #3690) were coated with 25 μl per well of immunogen at 5 μg/ml in PBS and incubated overnight at 4° C. Microplates were washed three times in PBS and blocked for 30 min with PBS containing 1% bovine serum albumin (BSA, Sigma Cat#A7030). Blocking buffer was removed and 25 μl of serial dilutions of sera samples were added. After a 2-h incubation, microplates were washed 4 times with PBS-TWEEN™ 20 0.05% and 25 μl of a 1/5,000 dilution of alkaline phosphatase conjugated F(ab′)′₂ goat anti-mouse IgG (H+L, #115-056-062, Jackson Immunoresearch, Cedarlane, Burlington, ON) in blocking buffer was added. After a 1-h incubation, microplates were washed 4 times and 25 μl of p-nitrophenyl phosphate (pNPP) substrate (Sigma-Aldrich Canada Co., Oakville, ON) at 1 mg/ml in carbonate buffer at pH 9.6 was added and further incubated for 30 min. Absorbance was read at 405 nm using a SpectraMax 340 PC plate reader (Molecular Devices, Sunnyvale, Calif.).
(§2) To evaluate if monoclonal antibodies bind to a conformational epitope, an ELISA analysis on native and denatured recombinant human wild-type EGFR and EGFRvIII proteins were performed. […] Antigens at 1-2 mg/ml were denatured by incubation at 95° C. for 5 min in PBS containing DTT at 40 mM final concentration. They were then incubated on ice for 5 min and diluted at their final coating concentration for ELISA purpose.
(§3) mAbs were purified using HiTrap ProteinG HP 1 mL columns GE Healthcare cat no. 17-0404-01 and desalted using Zeba-spin desalting columns 5 mL (Pierce) pre-equilibrated in PBS and filter sterilized through […] membrane (Millipore). The final concentration of the antibody solutions was determined using a Nano-drop 2000 (ThermoScientific), using IgG as sample type. ELISA was performed as described above (serum titer determination) using 25 μl of mAb supernatant (Exp 1) or purified mAb at 1 μg/ml (Exp 2).

[2] = target: T2, recombinant human wild-type EGFR protein, denatured (human, UniProt P00533 25-645); experiment: as above
T2 construct: Same protein as m11 after denaturation (95 °C for 5 min in PBS with 40 mM DTT); also called EGFRwt Denatured
Procedure: as §1, §2, §3

[3] = target: T3, human EGFRvIII amino acid residues 1 to 18, yeast-displayed (human, not fully specified); experiment: yeast display; smallest EGFRvIII fragment the antibody was able to bind
T3 construct: also called aa 1-18
T3 peptide: LEEKKGNYVVTDHGSCVR
Source text: Assessment of the binding of anti-EGFRvIII monoclonal antibodies to the fusion proteins expressed on yeast cell surface was done by flow cytometry analysis. Yeast cells were labeled with both the anti-EGFRvIII monoclonal antibody and chicken anti-Myc antibody the latter being used to monitor the level of expression of the fusion protein. Following a wash step, binding of the primary antibodies is probed by a two-color indirect fluorescence labeling using a specific mouse and chicken secondary antibodies for each of the primary antibody respectively.

[4] = target: T1, recombinant human EGFRvIII protein, …; experiment: ELISA on coated denatured recombinant antigen; Exp 1, mAb supernatant
Procedure: as §1, §2, §3

[5] = target: T4, wild-type human EGFR expressed on cells (U87MG overexpressing wild-type human EGFR) (human, UniProt P00533 25-645); experiment: flow cytometry, hybridoma supernatant on U87MG-EGFR WT cells
T4 construct: Full length wt EGFR on cells; also called U87MG-EGFR WT; U87 WT
Procedure: Prior to analysis, cells were plated such that they were not more than 80% confluent on the day of analysis. Unless otherwise stated, all media are kept are 4° C. and all incubations are performed on wet ice.

[6] = target: T5, recombinant human EGFRvIII protein, native (human, UniProt P00533 298-623); experiment: ELISA on coated native recombinant antigen; Exp 2, purified mAb 1 µg/ml
T5 construct: Recombinant extracellular domain used as immunogen and ELISA coat; also called EGFRvIII Native
Procedure: as §1, §2, §3

[7] = target: T6, recombinant human wild-type EGFR protein, native (human, UniProt P00533 25-645); experiment: as above
T6 construct: Recombinant protein used as ELISA coat; also called EGFRwt; wt EGFR
Procedure: as §1, §2, §3

[8] = target: T5, recombinant human EGFRvIII protein, …; experiment: ELISA on coated native recombinant antigen; Exp 1, mAb supernatant
Procedure: as §1, §2, §3

[9] = target: T6, recombinant human wild-type EGFR …; experiment: as above
Procedure: as §1, §2, §3

B1: F271-1D2 anti-EGFRvIII monoclonal antibody (antibody, V domains shown)
VH: DVQLQESGPDLVKPSQSLSLTCTVTGYSITSGYSWHWIRQFPGNKLEWMGYIHYSGSTNYNPSLKSRISITRDTSKNQFFLQLSSVTTEDTATYYCTRSPYFDVWGTGTTVTVSS
VL: DVVMTQTPLSLPVSLGDQASISCRSSQSLVHSDGNTYLHWYLQKPGQSPKLLIYKVSNRFSGVPDRFSGSGSGTDFTLKISRVEAEDLGVYFCSQSTHVPWTFGGGTKLEIK
notes: Mouse hybridoma IgG, tested as supernatant or Protein G purified mAb
ELISA absorbance (405 nm) [1]: 1.05 A405 | ELISA absorbance (405 nm) [2]: 0 A405 | binding result [3]: binds | ELISA absorbance (405 nm) [4]: 2.55 A405 | binding result [5]: no binding | ELISA absorbance (405 nm) [6]: 0.935 A405 | ELISA absorbance (405 nm) [7]: 0.004 A405 | ELISA absorbance (405 nm) [8]: 1.49 A405 | ELISA absorbance (405 nm) [9]: 0.002 A405
